Measurements reported in IntAct's records for PubMed 31515488.

B1: Protein LDOC1 (Homo sapiens), O95751 (parent)
chain: MVDELVLLLHALLMRHRALSIENSQLMEQLRLLVCERASLLRQVRPPSCPVPFPETFNGESSRLPEFIVQTASYMLVNENRFCNDAMKVAFLISLLTGEAEEWVVPYIEMDSPILGDYRAFLDEMKQCFGWDDDEDDDDEEEEDDY
partner: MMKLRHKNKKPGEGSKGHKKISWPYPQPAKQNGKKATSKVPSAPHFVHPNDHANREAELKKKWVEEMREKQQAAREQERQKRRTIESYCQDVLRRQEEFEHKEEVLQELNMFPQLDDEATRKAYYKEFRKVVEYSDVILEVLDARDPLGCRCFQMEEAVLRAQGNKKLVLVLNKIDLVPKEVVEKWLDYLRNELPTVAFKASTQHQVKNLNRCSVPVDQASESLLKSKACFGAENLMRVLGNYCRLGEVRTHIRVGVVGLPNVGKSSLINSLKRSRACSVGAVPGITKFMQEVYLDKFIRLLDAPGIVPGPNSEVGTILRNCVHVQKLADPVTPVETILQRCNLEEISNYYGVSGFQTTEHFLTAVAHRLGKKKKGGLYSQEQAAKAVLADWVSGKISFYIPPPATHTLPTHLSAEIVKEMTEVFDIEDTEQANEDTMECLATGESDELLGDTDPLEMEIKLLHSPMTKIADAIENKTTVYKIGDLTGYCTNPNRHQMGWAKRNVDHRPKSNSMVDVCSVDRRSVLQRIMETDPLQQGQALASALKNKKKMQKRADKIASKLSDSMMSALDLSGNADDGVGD
B2: Protein FAM9B (Homo sapiens), Q8IZU0 (parent)
chain: MAAWGKKHAGKDPVRDECEERNRFTETREEDVTDEHGEREPFAETDEHTGANTKKPEDTAEDLTAKRKRMKMDKTCSKTKNKSKHALRKKQLKRQKRDYIHSLKLLNVLEEYITDEQKEEEEEEGEEEELIRIFQEQQKKWQQYRSVRRERLKEMKLLRDQFVKALEDFEDLCDRVFSDEDSELDN
partner: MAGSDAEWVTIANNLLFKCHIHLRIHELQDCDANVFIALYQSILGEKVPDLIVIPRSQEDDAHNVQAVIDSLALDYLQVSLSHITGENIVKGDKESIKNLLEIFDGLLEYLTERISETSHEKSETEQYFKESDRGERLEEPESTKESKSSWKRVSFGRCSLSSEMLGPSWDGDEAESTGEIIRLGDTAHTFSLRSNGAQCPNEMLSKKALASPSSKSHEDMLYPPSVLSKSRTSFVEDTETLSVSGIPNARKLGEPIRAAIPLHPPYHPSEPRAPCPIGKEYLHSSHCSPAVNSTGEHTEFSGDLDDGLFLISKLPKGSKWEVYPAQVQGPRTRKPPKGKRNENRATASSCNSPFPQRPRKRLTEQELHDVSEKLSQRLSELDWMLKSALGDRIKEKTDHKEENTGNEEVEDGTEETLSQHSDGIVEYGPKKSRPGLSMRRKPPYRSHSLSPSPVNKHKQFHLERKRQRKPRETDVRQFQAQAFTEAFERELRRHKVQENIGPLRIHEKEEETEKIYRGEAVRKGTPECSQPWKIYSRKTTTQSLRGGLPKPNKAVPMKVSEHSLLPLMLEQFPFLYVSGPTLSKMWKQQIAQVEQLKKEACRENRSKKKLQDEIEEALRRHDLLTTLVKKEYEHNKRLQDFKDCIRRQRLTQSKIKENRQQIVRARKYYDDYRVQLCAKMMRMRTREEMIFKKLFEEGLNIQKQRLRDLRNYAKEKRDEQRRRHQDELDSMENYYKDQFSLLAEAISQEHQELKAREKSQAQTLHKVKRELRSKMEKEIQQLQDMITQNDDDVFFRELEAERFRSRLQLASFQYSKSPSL
B3: Four and a half LIM domains protein 2 (Homo sapiens), Q14192 (parent)
chain: MTERFDCHHCNESLFGKKYILREESPYCVVCFETLFANTCEECGKPIGCDCKDLSYKDRHWHEACFHCSQCRNSLVDKPFAAKEDQLLCTDCYSNEYSSKCQECKKTIMPGTRKMEYKGSSWHETCFICHRCQQPIGTKSFIPKDNQNFCVPCYEKQHAMQCVQCKKPITTGGVTYREQPWHKECFVCTACRKQLSGQRFTARDDFAYCLNCFCDLYAKKCAGCTNPISGLGGTKYISFEERQWHNDCFNCKKCSLSLVGRGFLTERDDILCPDCGKDI
partner: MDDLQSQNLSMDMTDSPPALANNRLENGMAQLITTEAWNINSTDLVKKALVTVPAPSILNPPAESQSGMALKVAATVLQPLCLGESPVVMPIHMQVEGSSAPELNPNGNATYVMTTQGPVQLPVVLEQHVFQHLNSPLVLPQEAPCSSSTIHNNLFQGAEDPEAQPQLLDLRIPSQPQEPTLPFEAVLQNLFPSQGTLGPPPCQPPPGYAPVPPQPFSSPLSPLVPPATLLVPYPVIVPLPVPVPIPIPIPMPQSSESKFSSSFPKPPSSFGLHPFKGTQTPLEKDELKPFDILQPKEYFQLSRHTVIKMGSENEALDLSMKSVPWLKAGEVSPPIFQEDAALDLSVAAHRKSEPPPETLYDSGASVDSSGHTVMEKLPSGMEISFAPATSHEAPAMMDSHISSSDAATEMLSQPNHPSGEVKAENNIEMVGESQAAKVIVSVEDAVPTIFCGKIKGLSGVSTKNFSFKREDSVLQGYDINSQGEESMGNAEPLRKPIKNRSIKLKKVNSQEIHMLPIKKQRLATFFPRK
B4: U3 small nucleolar RNA-associated protein 14 homolog C (Homo sapiens), Q5TAP6 (parent)
chain: MNVNQVAENLALSHQEELVDLPKNYPLSENEDEGDSDGERKHQKLLEAIISLDGKNRRKLAERSEASLKVSEFSVSSEGSGEKLGLADLLEPVKTSSSLATVKKQLNRVKSKKVVELPLNKEKIEQIHREVAFSKTSQVLSKWDPIILKNQQAEQLVFPLGKEQPAIAPIEHALSGWKARTPLEQEIFNLLHKNKQPVTDPLLTPMEKASLQAMSLEEAKMHRAELQRARALQSYYEAKARKEKKIKSKKYHKVVKKGKAKKALKEFEQLQKVNPTVALEEMEKIENARMMERMSLKHQNSGKWAKSKAIMAKYDLEARQAMQEQLAKNKELTQKLQVASESEEEEGGTEVEELLVPHVANEVQMNVDGPNPWMFRSCTSDTKEAATQEDPEQVPELAAHEVSASEAEERPVAEEEILLREFEERQSLRKRSELNQDAEPASSQETKDSSSQEVLSELRALSQKLKEKHQSRKQKASSEGTVPQVQREEPAPEEAEPLLLQRSERVQTLEELEELGKEDCFQNKELPRPVLEGQQSERTPNNRPDAPKEKKEKEQLINLQNFLTTQSPSVRSLAVPTIIEELEDEEERDQRQMIKEAFAGDDVIRDFLKEKREAVEASKPKDVDLTLPGWGEWGGVGLKPSAKKRRQFLIKAPEGPPRKDKNLPNVIISEKRNIHAAAHQVQVLPYPFTHHRQFERTIQTPIGSTWNTQRAFQKLTTPKVVTKPGHIIKPIKAEDVGYQSSSRSDLPVIQRNPKRITTRHNKEEKL
partner: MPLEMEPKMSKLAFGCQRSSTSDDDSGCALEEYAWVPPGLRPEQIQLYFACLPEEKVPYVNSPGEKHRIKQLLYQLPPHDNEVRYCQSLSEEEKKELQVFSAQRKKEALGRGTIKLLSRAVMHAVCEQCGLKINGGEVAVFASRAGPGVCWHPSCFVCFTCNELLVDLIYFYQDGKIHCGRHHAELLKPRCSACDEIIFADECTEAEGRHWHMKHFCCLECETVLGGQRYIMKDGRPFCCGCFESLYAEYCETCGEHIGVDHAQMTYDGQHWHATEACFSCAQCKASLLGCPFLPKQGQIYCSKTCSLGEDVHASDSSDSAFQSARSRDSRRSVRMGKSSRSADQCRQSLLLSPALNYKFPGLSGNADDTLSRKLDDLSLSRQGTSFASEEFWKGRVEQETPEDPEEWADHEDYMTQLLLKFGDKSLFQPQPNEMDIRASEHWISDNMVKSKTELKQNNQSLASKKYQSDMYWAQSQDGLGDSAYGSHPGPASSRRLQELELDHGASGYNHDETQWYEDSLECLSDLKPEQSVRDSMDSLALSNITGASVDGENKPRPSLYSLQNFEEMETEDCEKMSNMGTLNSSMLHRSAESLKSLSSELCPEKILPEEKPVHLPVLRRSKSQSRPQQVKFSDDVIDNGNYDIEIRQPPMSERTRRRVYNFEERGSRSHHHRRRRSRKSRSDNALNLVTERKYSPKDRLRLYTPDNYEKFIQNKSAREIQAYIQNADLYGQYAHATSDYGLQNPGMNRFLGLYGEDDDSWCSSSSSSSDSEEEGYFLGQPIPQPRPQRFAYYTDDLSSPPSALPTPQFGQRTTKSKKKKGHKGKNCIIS
B5: L-fucose dehydrogenase (Homo sapiens), Q9BPX1 (parent)
chain: MATGTRYAGKVVVVTGGGRGIGAGIVRAFVNSGARVVICDKDESGGRALEQELPGAVFILCDVTQEDDVKTLVSETIRRFGRLDCVVNNAGHHPPPQRPEETSAQGFRQLLELNLLGTYTLTKLALPYLRKSQGNVINISSLVGAIGQAQAVPYVATKGAVTAMTKALALDESPYGVRVNCISPGNIWTPLWEELAALMPDPRATIREGMLAQPLGRMGQPAEVGAAAVFLASEANFCTGIELLVTGGAELGYGCKASRSTPVDAPDIPS
partner: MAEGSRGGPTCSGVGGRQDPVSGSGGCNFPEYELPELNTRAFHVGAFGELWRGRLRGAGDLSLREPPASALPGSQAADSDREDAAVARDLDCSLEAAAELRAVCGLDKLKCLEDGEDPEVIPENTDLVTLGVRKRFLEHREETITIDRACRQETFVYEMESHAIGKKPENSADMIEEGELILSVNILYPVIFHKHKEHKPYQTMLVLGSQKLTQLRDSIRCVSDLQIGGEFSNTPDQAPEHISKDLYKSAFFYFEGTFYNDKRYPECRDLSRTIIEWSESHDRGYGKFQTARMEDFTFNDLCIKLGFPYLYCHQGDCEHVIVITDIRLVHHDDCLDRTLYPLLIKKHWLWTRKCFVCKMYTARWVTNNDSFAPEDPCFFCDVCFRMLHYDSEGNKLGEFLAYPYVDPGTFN

Variants of: B1
Settings: with gnl3l_human GNL3L

Variant	effect of a mutation on the interaction
L12H	disrupting interaction strength

Variants of: B2
Settings: with cep95_human CEP95, Q96GE4

Variant	effect of a mutation on the interaction
R23H	with no effect

Variants of: B3
Settings: with rai2_human RAI2, Q9Y5P3

Variant	effect of a mutation on the interaction
N95K	with no effect
A37S	with no effect

Variants of: B4
Settings: with pric1_human PRICKLE1, Q96MT3

Variant	effect of a mutation on the interaction
V109D	with no effect
T101A	disrupting interaction strength

Next, values leading:

effect of a mutation on the interaction	Variant
with no effect	R672H
with no effect	I170V
with no effect	K247E
with no effect	A652T

Variants of: B5
Settings: with snpc3_human SNAPC3, Q92966

Variant	effect of a mutation on the interaction
N31D	with no effect
